Here are results for seven molecules from US20110217237A1 (AbbVie / Abbott, published 2011).

In assay [1] the target is T1, human DLL4 extracellular domain (human, UniProt Q9NR61 27-529).
T1 construct: purified recombinant ECD; biotin-labelled or 6xHis-tagged depending on the assay; also called huDLL4 ECD; hu DLL4 ECD
The experiment in a line: SPR (Biacore). As for the experimental part:
(§1) The BIACORE® surface plasmon resonance assay (Biacore, Inc., Piscataway, N.J., US) determines the affinity of antibodies with kinetic measurements of on-rate and off-rate constants. Binding of DLL4 antibodies to a purified recombinant DLL4 extracellular domain (ECD) was determined by surface plasmon resonance-based measurements with a Biacore® instrument (either a Biacore 2000, Biacore 3000, or Biacore T100; GE Healthcare, Piscataway, N.J., US) using running buffer HBS-EPB (10 mM HEPES [pH 7.4], 150 mM NaCl, 3 mM EDTA, 0.1 mg/ml BSA and 0.005% surfactant P20) at 25° C. For example, approximately 9000 RU of goat anti-human Fc specific polyclonal antibody (Thermo Fisher Scientific Inc., Rockford, Ill., US) diluted in 10 mM sodium acetate (pH 4.5) is directly immobilized across a CMS research grade biosensor chip using a standard amine coupling kit according to manufacturer's instructions and procedures at 25 μg/ml. Unreacted moieties on the biosensor surface were blocked with ethanolamine. For kinetic analysis, rate equations derived from the 1:1 Langmuir binding model were fitted simultaneously to multiple antigen injections (using global fit analysis) with the use of Scrubber 2 (BioLogic Software), Biacore Biaevaluation 4.0.1 software or Biacore T100 Evaluation software. Purified antibodies were diluted in running buffer for capture across goat anti-human Fc reaction surfaces. Antibodies to be captured as a ligand (1 μg/ml) were injected over reaction matrices at a flow rate of 10 μl/min. During the assay, all measurements were referenced against the capture surface alone (i.e., with no captured anti-DLL4 antibody). […] The equilibrium dissociation constant KD (M) of the reaction between antibodies and the target antigen was then calculated from the kinetic rate constants by the following formula: KD=Koff/Kₒₙ. Binding was recorded as a function of time and kinetic rate constants were calculated.

Assay [2] addresses T2, mouse DLL4 extracellular domain (mouse, UniProt Q9JI71 27-532).
T2 construct: extracellular domain; also called muDLL4 ECD; murine DLL4
The experiment in a line: SPR (Biacore). The protocol: as §1
A general note: In SPR one partner is held on a chip, and binding of the other changes the refractive index at the surface.

Assay [3] concerns the target T1, human DLL4 extracellular domain. The experiment in a line: binding ELISA. As for the experimental part:
(§2) Plates were then washed 3 times. 100 μl/well of recombinant rat/human chimeric or recombinant human anti-DLL4 antibodies were then added to the plate (0.00164-27 nM, 4-fold serial dilution in ELISA buffer=PBST, 10% Superblock (Pierce #37515)) for 1 hour at 25° C. with shaking and then washed again 3 times. Plates were incubated with goat anti-human HRP (Pierce #31412) (1:40,000 dilution in ELISA buffer, 100 μl/well) for 1 hour at 25° C. with shaking, then washed 3 times. After the final wash, plates were incubated with 100 μl/well ELISA substrate (Sigma #T8665). The reaction was stopped after 8 minutes at 25° C. with 100 μl/well 1N HCl and the absorbance was read at 450 nm. Data were analyzed using Graphpad Prism software, and EC50 values were reported.
(§3) Purified variants were further characterized for their affinities for human, murine and cynomolgus DLL4 by binding ELISA (Example 1.2, Method 2), by Biacore (Example 1.1), and by Flow Cytometry (FACS). […] The humanized variants were then tested for their functionality with human and murine DLL4 by competition ELISA (Example 1.3) and by Notch reporter assay (Example 1.6).

The target in assay [4] is T3, cynomolgus monkey DLL4 extracellular domain (cynomolgus monkey).
T3 construct: extracellular domain; also called cynoDLL4 ECD; Cyno DLL4
As to the kind of experiment: binding ELISA. As for the experimental part:
as §2, §3
Background: An ELISA detects its analyte on a solid surface through an enzyme-linked reagent.

Assay [5] concerns the target T2, mouse DLL4 extracellular domain. The experiment in a line: binding ELISA. The protocol:
as §2, §3

For assay [6], the target named is T4, human DLL4, full length, on cells (human, UniProt Q9NR61 27-685).
T4 construct: also called huDLL4 cells; human DLL4-293G
The experiment in a line: FACS, DLL4 cells.

The next assay has as its target T5, mouse DLL4 on cells (mouse, UniProt Q9JI71 27-686).
T5 construct: whole, on cells; also called mouse DLL4-293G; mu DLL4 cells
The experiment in a line: FACS, DLL4 cells. On the technique in general: In flow cytometry, cells or beads pass a laser one at a time.

The target of assay [7] is T4, human DLL4, full length, on cells. The experiment in a line: cell-based or functional assay.
Assay [8] addresses T1, human DLL4 extracellular domain. As to the kind of experiment: competition ELISA vs Notch-1. The protocol:
(§4) Plates were then washed 3 times with wash buffer (PBS, 0.05% Tween-20) and blocked with 200 μl/well blocking buffer (D-PBS, 1% BSA, 1 mM CaCl₂, 0.05% Tween-20) for 1 hour at 25° C. While blocking, biotin labeled DLL4 extracellular domain (14 nM) was mixed with antibody (30 pM-66 nM, 3-fold serial dilution in blocking buffer) for 1 hour at 25° C. with shaking. Assay plates were washed after blocking, and incubated with DLL4/antibody mixtures (100 μl/well, 1 hour at 25° C. with shaking). Plates were washed again and 100 μl/well streptavidin conjugated with HRP (Fitzgerald #65R-S104PHRPx, diluted 1:5,000 in blocking buffer) was added for 1 hour at 25° C. with shaking. After a final wash, plates were developed using 100 μl/well substrate (TMB Sigma #T8665), and the reaction was stopped using 100 μl/well 1N HCl, and the absorbance was read at 450 nm. Data were analyzed using Graphpad Prism software and IC₅₀ values were reported as the concentration of antibody to achieve 50% reduction of DLL4 bound to Notch1.
as §3

Assay [9] addresses T2, mouse DLL4 extracellular domain. As to the kind of experiment: competition ELISA vs Notch-1. The protocol:
as §4, §3

T4 sequence (Q9NR61 27-685 limits assumed): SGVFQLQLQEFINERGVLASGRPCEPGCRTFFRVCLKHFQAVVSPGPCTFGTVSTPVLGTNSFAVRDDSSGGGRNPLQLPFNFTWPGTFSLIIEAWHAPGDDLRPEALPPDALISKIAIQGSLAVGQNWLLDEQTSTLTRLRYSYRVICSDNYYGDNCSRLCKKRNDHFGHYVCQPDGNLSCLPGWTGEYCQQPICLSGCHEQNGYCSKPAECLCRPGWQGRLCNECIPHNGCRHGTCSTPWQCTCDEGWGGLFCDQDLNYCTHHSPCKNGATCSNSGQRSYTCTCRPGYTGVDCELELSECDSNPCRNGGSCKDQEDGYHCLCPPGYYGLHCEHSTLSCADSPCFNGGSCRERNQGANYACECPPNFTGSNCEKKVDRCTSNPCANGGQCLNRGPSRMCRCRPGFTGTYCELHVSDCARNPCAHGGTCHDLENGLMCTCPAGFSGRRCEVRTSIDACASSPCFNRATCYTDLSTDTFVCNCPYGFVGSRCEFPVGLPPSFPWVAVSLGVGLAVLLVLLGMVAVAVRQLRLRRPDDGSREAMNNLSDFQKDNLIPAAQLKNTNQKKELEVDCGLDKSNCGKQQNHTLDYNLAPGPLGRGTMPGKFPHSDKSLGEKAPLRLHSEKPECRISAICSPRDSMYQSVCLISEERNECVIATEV
T5 sequence (Q9JI71 27-686): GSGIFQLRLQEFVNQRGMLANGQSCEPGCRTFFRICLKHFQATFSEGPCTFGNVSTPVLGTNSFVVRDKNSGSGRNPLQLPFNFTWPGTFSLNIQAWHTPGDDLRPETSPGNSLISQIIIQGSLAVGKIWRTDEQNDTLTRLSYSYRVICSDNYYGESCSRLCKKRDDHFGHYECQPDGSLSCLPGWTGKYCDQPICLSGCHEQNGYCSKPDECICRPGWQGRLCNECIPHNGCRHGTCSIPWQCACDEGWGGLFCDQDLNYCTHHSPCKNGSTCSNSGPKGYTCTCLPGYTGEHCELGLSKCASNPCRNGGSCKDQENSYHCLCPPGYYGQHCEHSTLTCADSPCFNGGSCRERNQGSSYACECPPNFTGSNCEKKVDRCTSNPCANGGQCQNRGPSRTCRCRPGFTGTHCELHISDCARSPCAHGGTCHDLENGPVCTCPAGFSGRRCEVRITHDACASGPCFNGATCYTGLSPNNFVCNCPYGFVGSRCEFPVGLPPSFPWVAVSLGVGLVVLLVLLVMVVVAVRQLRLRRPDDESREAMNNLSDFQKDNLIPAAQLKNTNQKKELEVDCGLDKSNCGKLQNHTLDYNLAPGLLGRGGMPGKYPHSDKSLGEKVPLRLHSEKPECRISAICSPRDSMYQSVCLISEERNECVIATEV
T2 sequence (Q9JI71 27-532): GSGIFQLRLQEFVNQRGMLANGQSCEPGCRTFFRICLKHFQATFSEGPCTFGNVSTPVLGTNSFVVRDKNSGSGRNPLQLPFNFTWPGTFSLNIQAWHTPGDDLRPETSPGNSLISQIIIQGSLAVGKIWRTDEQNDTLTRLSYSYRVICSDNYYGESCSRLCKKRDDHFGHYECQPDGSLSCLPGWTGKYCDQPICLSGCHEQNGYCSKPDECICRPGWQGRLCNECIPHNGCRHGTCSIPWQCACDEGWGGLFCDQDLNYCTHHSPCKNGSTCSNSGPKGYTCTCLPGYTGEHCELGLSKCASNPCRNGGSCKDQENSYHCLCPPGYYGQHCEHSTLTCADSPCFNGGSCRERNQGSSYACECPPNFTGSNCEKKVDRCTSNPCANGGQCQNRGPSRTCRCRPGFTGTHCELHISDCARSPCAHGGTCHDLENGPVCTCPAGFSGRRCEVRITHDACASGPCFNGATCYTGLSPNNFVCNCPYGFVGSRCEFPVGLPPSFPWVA
T1 sequence (Q9NR61 27-529 limits assumed): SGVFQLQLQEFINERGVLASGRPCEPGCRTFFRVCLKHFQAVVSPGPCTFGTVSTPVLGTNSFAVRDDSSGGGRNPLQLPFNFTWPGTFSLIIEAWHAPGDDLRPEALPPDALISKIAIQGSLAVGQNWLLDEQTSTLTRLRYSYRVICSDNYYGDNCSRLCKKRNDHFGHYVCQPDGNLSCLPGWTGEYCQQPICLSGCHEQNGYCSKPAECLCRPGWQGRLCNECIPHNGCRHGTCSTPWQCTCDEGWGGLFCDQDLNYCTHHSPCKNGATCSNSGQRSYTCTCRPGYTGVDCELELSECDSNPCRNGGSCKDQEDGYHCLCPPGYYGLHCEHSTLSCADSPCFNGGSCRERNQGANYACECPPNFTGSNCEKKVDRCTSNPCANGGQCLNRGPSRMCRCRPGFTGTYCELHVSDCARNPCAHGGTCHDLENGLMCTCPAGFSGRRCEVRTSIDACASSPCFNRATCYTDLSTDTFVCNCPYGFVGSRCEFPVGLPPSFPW

B1: h1A11.5 (antibody, V domains shown)
VH: EVQLVESGGGLVQPGGSLRLSCAASGFTFSNFPMAWVRQAPGKGLEWVATISSSDGTTYYRDSVKGRFTISRDNAKSSLYLQMNSLRAEDTAVYYCSRGYYNSPFAYWGQGTLVTVSS
VL: DIQMTQSPSSLSASVGDRVTITCRASEDIYSNLAWYQQKPGKAPKLLIYDTNNLADGVPSRFSGSGSGTDFTLTISSLQPEDFATYYCQQYNNYPPTFGQGTKLEIKR
notes: humanized IgG; also called VH.1a/VL.1 1A11
Usually Kd stands for the free concentration of one partner at which half of the binding sites on the other are occupied at equilibrium, for simple one-to-one binding. The term EC50 denotes the concentration giving half of the maximal effect. By IC50 is commonly meant the concentration that inhibits the measured activity by half. Take B1: the values for the Kd in [1] and in [2] were 9600 pM and 22000 pM, respectively. Besides, the 50% effective concentration (EC50) in [3] came out at 70 pM; in [4], 160 pM; in [5], 80 pM; in assay [6], 3610 pM; in the assay with mouse DLL4 on cells, 210 pM. Also, the “Reporter Assay (EC50, nM)” value in [7] was 3.8 nM. Moreover, the 50% inhibitory concentration (IC50) in assay [8] stood at 300 pM; in assay [9], 800 pM.

B2: h1A11.3 (antibody, V domains shown)
VH: EVQLVESGGGLVQPGGSLRLSCAASGFTFSNFPMAWVRQAPGKGLEWVATISSSDGTTYYRDSVKGRFTISRDNAKNSLYLQMNSLRAEDTAVYYCARGYYNSPFAYWGQGTLVTVSS
VL: DIQMTQSPSSLSASVGDRVTITCRASEDIYSNLAWYQQKPGKAPKLLIFDTNNLADGVPSRFSGSGSGTDFTLTISSLQPEDFATYYCQQYNNYPPTFGQGTKLEIKR
notes: humanized IgG; also called VH.1/VL.1b 1A11
As to B2, the Kd in assay [1] amounted to 15000 pM; in assay [2], 37000 pM. The EC50 in assay [3] was 70 pM; in [4], 160 pM; in [5] it was 80 pM; in [6] it was 3510 pM; with mouse DLL4 on cells it was 240 pM. The “Reporter Assay (EC50, nM)” value in assay [7] was found to be 2.53 nM. For the same molecule, the half-maximal inhibitory concentration (IC50) in assay [8] was determined as 200 pM; in assay [9], 900 pM.

B3: h1A11.6 (antibody, V domains shown)
VH: EVQLVESGGGLVQPGGSLRLSCAASGFTFSNFPMAWVRQAPGKGLEWVATISSSDGTTYYRDSVKGRFTISRDNAKSSLYLQMNSLRAEDTAVYYCSRGYYNSPFAYWGQGTLVTVSS
VL: DIQMTQSPSSLSASVGDRVTITCRASEDIYSNLAWYQQKPGKSPKLLIFDTNNLADGVPSRFSGSGSGTDSTLTISSLQPEDFATYFCQQYNNYPPTFGQGTKLEIKR
notes: humanized IgG; also called VH.1a/VL.1a 1A11
As for B3, the Kd in assay [1] was 11300 pM; in assay [2], 31000 pM. The 50% effective concentration (EC50) in assay [3] is 80 pM; in assay [4], 130 pM; in [5], 100 pM; in assay [6], 3740 pM; with mouse DLL4 on cells, 150 pM. Further, in assay [7], the “Reporter Assay (EC50, nM)” value was 1.45 nM. The figures for the IC50 in [8] and in [9] were 400 pM and 800 pM, respectively.

B4: h1A11.8 (antibody, V domains shown)
VH: EVQLVESGGGLVQPGGSLRLSCAASGFTFSNFPMAWVRQAPGKGLEWVATISSSDGTTYYRDSVKGRFTISRDNAKSSLYLQMNSLRAEDTAVYYCSRGYYNSPFAYWGQGTLVTVSS
VL: EIVMTQSPATLSVSPGERATLSCRASEDIYSNLAWYQQKPGQSPRLLIFDTNNLADGVPARFSGSGSGTESTLTISSLQSEDFAVYFCQQYNNYPPTFGQGTKLEIKR
notes: humanized IgG; also called VH.1a/VL.2a 1A11
On to B4, for which the equilibrium dissociation constant (Kd) in assay [1] stood at 11000 pM; in assay [2], 24000 pM. The half-maximal effective concentration (EC50) in assay [3] was 60 pM; in assay [4] it was 170 pM; in assay [5], 90 pM; in assay [6] it was 3340 pM; with mouse DLL4 on cells, 180 pM. Besides, in [7], the “Reporter Assay (EC50, nM)” value is 4.24 nM. Also, the IC50 in assay [8] is 350 pM; in assay [9], 900 pM.

B5: h1A11.9 (antibody, V domains shown)
VH: EVQLVESGGGLVQPGGSLRLSCAASGFTFSNFPMAWVRQAPGKGLEWVATISSSDGTTYYRDSVKGRFTISRDNAKNSLYLQMNSLRAEDTAVYYCSRGYYNSPFAYWGQGTLVTVSS
VL: DIQMTQSPSSLSASVGDRVTITCRASEDIYSNLAWYQQKPGKAPKLLIYDTNNLADGVPSRFSGSGSGTDFTLTISSLQPEDFATYYCQQYNNYPPTFGQGTKLEIKR
notes: humanized IgG; also called VH.1b/VL.1 1A11
As to B5, the equilibrium dissociation constant (Kd) in [1] was 13000 pM; in assay [2], 34000 pM. For the same molecule, the EC50 in [3] was 70 pM; in assay [4] it was 150 pM; in assay [5] it was 90 pM; in assay [6] it was 3280 pM; with mouse DLL4 on cells, 180 pM. Also, the “Reporter Assay (EC50, nM)” value in assay [7] was determined as 3.18 nM. The IC50 in assay [8] is 300 pM; in assay [9], 900 pM.

B6: h1A11.4 (antibody, V domains shown)
VH: EVQLVESGGGLVQPGGSLRLSCAASGFTFSNFPMAWVRQAPGKGLEWVATISSSDGTTYYRDSVKGRFTISRDNAKNSLYLQMNSLRAEDTAVYYCARGYYNSPFAYWGQGTLVTVSS
VL: EIVMTQSPATLSVSPGERATLSCRASEDIYSNLAWYQQKPGQSPRLLIFDTNNLADGVPARFSGSGSGTESTLTISSLQSEDFAVYFCQQYNNYPPTFGQGTKLEIKR
notes: humanized IgG; also called VH.1/VL.2a 1A11
Turning to B6, the Kd in [1] stood at 16000 pM; in [2], 39000 pM. The EC50 in assay [3] stood at 80 pM; in assay [4], 170 pM; in assay [5], 90 pM; in assay [6], 3610 pM; in the assay with mouse DLL4 on cells, 220 pM. The “Reporter Assay (EC50, nM)” value in assay [7] stood at 3.28 nM. The half-inhibitory concentration (IC50) in assay [8] was 300 pM; in [9] it was 900 pM.

B7: h1A11.7 (antibody, V domains shown)
VH: EVQLVESGGGLVQPGGSLRLSCAASGFTFSNFPMAWVRQAPGKGLEWVATISSSDGTTYYRDSVKGRFTISRDNAKSSLYLQMNSLRAEDTAVYYCSRGYYNSPFAYWGQGTLVTVSS
VL: DIQMTQSPSSLSASVGDRVTITCRASEDIYSNLAWYQQKPGKAPKLLIFDTNNLADGVPSRFSGSGSGTDFTLTISSLQPEDFATYYCQQYNNYPPTFGQGTKLEIKR
notes: humanized IgG; also called VH.1a/VL.1b 1A11
Turning to B7, the figures for the Kd in assay [1] and in assay [2] were 13000 pM and 35000 pM, respectively. The concentration giving a half-maximal response (EC50) came to 60 pM in assay [3]; 140 pM in assay [4]; 90 pM in [5]; 3710 pM in assay [6]; 180 pM with mouse DLL4 on cells. In addition, in assay [7], the “Reporter Assay (EC50, nM)” value turned out to be 4.84 nM. In addition, the IC50 in assay [8] amounted to 500 pM; in assay [9], 900 pM.
